System: Mononuclear cell-derived human myeloid dendritic cells
Assay type: cell-based
Conditions: 0.02 μM HagB alone

B1: HagB: recombinant hemagglutinin B of P. gingivalis, 49.0 kDa protein composed of 350 amino acid residues (protein)
chain: MTVENLRLQRLQNLEHYRFAKNVLTLCRTANIAKLNPKLPELEKAIEMEDLALNPPVANELTPQVIALDEERDRAYQALMSRVRSYAFDEDSQLRNAAARIEDVAARYGNVIRMNYDKETAAIENFLTDLKGENIRPLVTKLGVTALVDRLEKNNKAFADFFLRRLSTDQRGKYDVKALRAETDRTLVAVVRRMDSIDDMEPSPEIRALIELYNRLVANRRALLARRASYGEAAVEKRRAEIAEMLRPLLARIVEEKKTAVFAGRTLGTGKNRHYLITFVAENGDEEDRWYRINGEQLVYVPEDELPKPKKKKKPASSTDTPSEPPVLPDPSQGGSSSGGGEQGSTGGGL
modifications: left off: His6 (from the vector pQE31), end not stated, state not stated
B1 was tested, and the “CCL3/MIP-1α, CCL4/MIP-1β, and TNFα responses induced” value was “strong” and the CSF2/GM-CSF response induced was “weaker”.
